Consider 5 molecules from article PMC5426754, “Ezrin interacts with S100A4 via both its N- and C-terminal domains” (PLoS ONE, 2017).

The labels stand for the following.
B1: Fl-C-ERMAD^T567D (fluorescently labeled phosphomimetic C-ERMAD mutant) (domain or fragment, human)
chain: CKRITEAEKNERVQRQLLTLSSELSQARDENKRTHNDIIHNENMRQGRDKYKDLRQIRQGNTKQRIDEFEAL
modifications: fluorescent label on the N-terminal cysteine (Alexa Fluor 568 C5 maleimide by the methods for the C-ERMAD fragments)
notes: cysteine cloned before Lys516, carries the fluorescent label (as for the C-ERMAD); human ezrin C-ERMAD with Thr567Asp; limits are those printed for the parent C-ERMAD (Lys516-Leu586); source: E. coli Rosetta(DE3), purified, fluorescently labeled; not shown: GST, N-terminal, cleaved
B2: Ezrin C-ERMAD (Cys-Lys516-Leu586), unlabeled (domain or fragment, human)
chain: B1 chain with D53T
notes: cysteine cloned before Lys516 for fluorescent labeling; human ezrin C-ERMAD, Lys516-Leu586; also called unlabeled C-ERMAD; not shown: GST, N-terminal, cleaved
B3: Fl-C-ERMAD (fluorescently labeled ezrin C-ERMAD, Cys-Lys516-Leu586) (domain or fragment, human)
chain: B1 chain with D53T
modifications: Alexa Fluor 568 C5 maleimide on the N-terminal cysteine (the same paragraph also calls the peptides fluorescein-conjugated)
notes: cysteine cloned before Lys516, carries the fluorescent label; human ezrin C-ERMAD, Lys516-Leu586; also called fluorescently-labeled C-ERMAD; not shown: GST, N-terminal, cleaved
B4: S100A4 (metastasin), wild type (natural protein)
chain: not shown
B5: S100P (natural protein, UniProt P25815 1-95, looked up)
chain: MTELETAMGMIIDVFSRYSGSEGSTQTLTKGELKVLMEKELPGFLQSGKDKDAVDKLLKDLDANGDAQVDFSEFIVFVAAITSACHKYFEKAGLK

Holding throughout (conditions): both partners purified
The target in experiment [1] is T1, Ezrin N-ERMAD (N-terminal ERM domain, FERM domain, Met1-Lys296) (human, UniProt P15311 1-296). Nature of the experiment: fluorescence polarisation; direct FP; 50 nM fluorescent tracer (Fl-C-ERMAD variants or Fl-NMIIA) titrated with S100 proteins or N-ERMAD; 20 mM HEPES pH 7.5, 150 mM NaCl, 0.1 mM TCEP, 1 mM CaCl2, 0.05% Tween-20; triplicates; quadratic binding equation. For orientation: In fluorescence polarisation assays a small probe gives low polarisation when free and higher when bound to something large.

For experiment [2], the target named is B4. The experiment is described as above.
Experiment [3] concerns the target T1, Ezrin N-ERMAD (N-terminal ERM domain, …). Nature of the experiment: circular dichroism; far-UV CD difference spectra of complexes; 10 mM Tris pH 7.5, 150 mM NaCl, 0.1 mM TCEP, 1 mM CaCl2; 15 μM N-ERMAD + 50 μM S100A4 dimer, 25 μM F2 lobe + 25 μM S100A4 dimer, 25 μM C-ERMAD + 100 μM S100A4 dimer or 30 μM N-ERMAD; BeStSel deconvolution. A general note: CD spectra are sensitive to the conformation of chiral molecules.

Experiment [4] deals with B4. Nature of the experiment: fluorescence polarisation; competitive FP; 50 nM Fl-NMIIA complexed with 4 μM S100A4 dimer titrated with ezrin constructs; competition binding equation; triplicates.
For experiment [5], the target named is T2, Ezrin F2 lobe of the N-ERMAD (Glu87-Glu199) (human, UniProt P15311 87-199). As to the kind of experiment: other fluorescence titration; steady-state tryptophan fluorescence; 2 μM ezrin construct titrated with S100 protein; 20 mM HEPES pH 7.5, 150 mM NaCl, 0.5 mM TCEP, 1 mM CaCl2; 25°C; quadratic binding equation.
The target of experiment [6] is T3, Full-length human ezrin (human, UniProt P15311 1-586). Nature of the experiment: fluorescence polarisation; competitive FP; 50 nM Fl-NMIIA complexed with 4 μM S100A4 dimer titrated with ezrin constructs; competition binding equation; triplicates.
Experiment [7] concerns the target T1, Ezrin N-ERMAD (N-terminal ERM domain, …). Described as above.
Experiment [8] has as its target T4, Full-length human ezrin, phosphomimicking mutant T567D (human, UniProt P15311 1-586, Thr567Asp). The description is as above.
For experiment [9], the target named is T2, Ezrin F2 lobe of the N-ERMAD …. The description is as above.
Experiment [10] concerns the target T3, Full-length human ezrin. Nature of the experiment: other fluorescence titration; steady-state tryptophan fluorescence; 2 μM ezrin construct titrated with S100 protein; 20 mM HEPES pH 7.5, 150 mM NaCl, 0.5 mM TCEP, 1 mM CaCl2; 25°C; quadratic binding equation.
Experiment [11] deals with T1, Ezrin N-ERMAD (N-terminal ERM domain, …). The experiment is described as above.
Experiment [12] has as its target T4, Full-length human ezrin, …. The experiment is described as above.
Experiment [13] addresses T2, Ezrin F2 lobe of the N-ERMAD …. The experiment is described as above. This is another data set of the same source.
The target of experiment [14] is T1, Ezrin N-ERMAD (N-terminal ERM domain, …). Nature of the experiment: stopped-flow tryptophan fluorescence kinetics; 1 μM (post-mixing) N-ERMAD or F2 lobe mixed with S100A4 at different concentrations; 20 mM HEPES pH 7.5, 150 mM NaCl, 0.5 mM TCEP, 1 mM CaCl2; 25°C; Kd from amplitudes (quadratic), K1, k2, k-2 from hyperbola of kobs (induced fit).
The target in experiment [15] is T2, Ezrin F2 lobe of the N-ERMAD …. The description is as above.
Experiment [16] addresses T1, Ezrin N-ERMAD (N-terminal ERM domain, …). Nature of the experiment: other fluorescence titration; steady-state tryptophan fluorescence; 2 μM ezrin construct titrated with S100 protein; 20 mM HEPES pH 7.5, 150 mM NaCl, 0.5 mM TCEP, 1 mM CaCl2; 25°C; quadratic binding equation. This is another data set of the same source.

Residue numbers refer to the chain shown, from its start. Numbers in names are those of the source.

What is called Kd is the equilibrium constant for the complex coming apart. Higher therefore signals lower affinity. Regarding B1, the binding result in experiment [1] is “binds”. Also, the Kd in experiment [2] is 2700 nM.

Turning to B2, in [3], the binding result is recorded as “binds”. Binding in experiment [4] was characterised by a dissociation constant (Kd) of 5300 nM.

On to B3, for which the equilibrium dissociation constant (Kd) in [1] came out at 8.6 ± 0.7 nM; in experiment [2] it was 3400 nM.

What is called stoichiometry N is a count of units in the complex or per binding partner. Consider B4, for which, in experiment [5], the “stoichiometry N” value was found to be 1 S100A4 dimer per F2 lobe. Also, the dissociation constant Kd in experiment [6] came out at 92100 nM; in [7] it was 1100 nM; in experiment [8] it was 72200 nM; in experiment [9], 120 nM; in [10] it was 175000 nM; in experiment [11] it was 2200 nM. The Kd is 158000 nM in [12], below 100 nM in [13], 3900 nM in [14] and 170 nM in experiment [15].

B5 showed a Kd in experiment [16] of 1700 ± 300 nM.
